Marks after values point to notes of the source that are not given here.
What was measured:
[1] = molecular target: T1, CIMPR (Homo sapiens, UniProt P11717); assay: CIMPR affinity chromatography (bound vs unbound rhGAA by GAA activity); format: binding; conditions: CIMPR affinity column, fraction of total enzyme by GAA activity
Source text: Multiple batches of the rhGAA according to the disclosure were produced in shake flasks and in perfusion bioreactors using CHO cell line GA-ATB200, the product of which is referred to as “ATB200.” Weak anion exchange (“WAX”) liquid chromatography was used to fractionate ATB200 rhGAA according to terminal phosphate and sialic acid. Elution profiles were generated by eluting the ERT with increasing amount of salt. The profiles were monitored by UV (A280 nm).
To evaluate the ability of the conventional rhGAAs in MYOZYME® and LUMIZYME® to interact with the CIMPR, the two conventional rhGAA preparations were injected onto a CIMPR affinity column (which binds rhGAA having M6P groups) and the flow through collected. The bound material was eluted with a free M6 gradient. Fractions were collected in 96-well plate and GAA activity assayed by 4MU-α-glucosidase substrate. The relative amounts of unbound (flow through) and bound (M6P eluted) rhGAA were determined based on GAA activity and reported as the fraction of total enzyme. […] Indeed, only 27% of the rhGAA in MYOZYME® and 22% of the rhGAA in LUMIZYME® contained M6P that can be productive to target it to the CIMPR on muscle cells.

[2] = test system: Gaa KO mice; assay: single fiber analysis (LAMP1/LC3 co-immunofluorescence, white gastrocnemius); format: in vivo
Source text: FIG. 17 depicts co-immunofluorescent staining of LAMP1 (green) (see for example, “B”) and LC3 (red) (see, for example, “A”) in single fibers isolated from the white gastrocnemius of Gaa KO mice treated with a vehicle, alglucosidase alfa, or ATB200. “C” depicts clearance of autophagic debris and absence of enlarged lysosome. A minimum of 30 fibers were examined from each animal.
As a result, a significant portion of muscle fibers analyzed (36-60%) from ATB200-treated mice appeared normal or near-normal.

[3] = thermostability assay using SYPRO Orange; format: physicochemical
Procedure: The stability of ATB200 in acidic or neutral pH buffers was evaluated in a thermostability assay using SYPRO Orange, as the fluorescence of the dye increases when proteins denature. […] As summarized in Table 6, the addition of AT2221 increased the melting temperature (Tm) of ATB200 by nearly 10° C.

[4] = molecular target: T1, CIMPR; assay: CIMPR plate binding assay
Procedure: In addition to having a greater percentage of rhGAA that can bind to the CIMPR, it is important to understand the quality of that interaction. LUMIZYME® and ATB200 receptor binding was determined using a CIMPR plate binding assay. Briefly, CIMPR-coated plates were used to capture GAA. Varying concentrations of rhGAA were applied to the immobilized receptor and unbound rhGAA was washed off. The amount of remaining rhGAA was determined by GAA activity. […] For LUMIZYME®, there is on average only 10% of molecules having a bis-phosphorylated N-glycan. In contrast, on average every rhGAA molecule in ATB200 has at least one bis-phosphorylated N-glycan.
N-glycan analysis via MALDI-TOF mass spectrometry confirmed that on average each ATB200 molecule contains at least one natural bis-M6P N-glycan structure.

[5] = test system: normal and Pompe fibroblast cell lines; assay: cellular uptake of rhGAA in fibroblasts (internalized GAA by 4MU-α-Glucoside hydrolysis); format: cell-based
Procedure: The relative cellular uptake of ATB200 and LUMIZYME® rhGAA were compared using normal and Pompe fibroblast cell lines. Comparisons involved 5-100 nM of ATB200 according to the disclosure with 10-500 nM conventional rhGAA product LUMIZYME®. After 16-hr incubation, external rhGAA was inactivated with TRIS base and cells were washed 3-times with PBS prior to harvest. Internalized GAA measured by 4MU-α-Glucoside hydrolysis and was graphed relative to total cellular protein and the results appear in FIGS. 11A-11C.

T1 sequence (P11717 41-2491, species assumed): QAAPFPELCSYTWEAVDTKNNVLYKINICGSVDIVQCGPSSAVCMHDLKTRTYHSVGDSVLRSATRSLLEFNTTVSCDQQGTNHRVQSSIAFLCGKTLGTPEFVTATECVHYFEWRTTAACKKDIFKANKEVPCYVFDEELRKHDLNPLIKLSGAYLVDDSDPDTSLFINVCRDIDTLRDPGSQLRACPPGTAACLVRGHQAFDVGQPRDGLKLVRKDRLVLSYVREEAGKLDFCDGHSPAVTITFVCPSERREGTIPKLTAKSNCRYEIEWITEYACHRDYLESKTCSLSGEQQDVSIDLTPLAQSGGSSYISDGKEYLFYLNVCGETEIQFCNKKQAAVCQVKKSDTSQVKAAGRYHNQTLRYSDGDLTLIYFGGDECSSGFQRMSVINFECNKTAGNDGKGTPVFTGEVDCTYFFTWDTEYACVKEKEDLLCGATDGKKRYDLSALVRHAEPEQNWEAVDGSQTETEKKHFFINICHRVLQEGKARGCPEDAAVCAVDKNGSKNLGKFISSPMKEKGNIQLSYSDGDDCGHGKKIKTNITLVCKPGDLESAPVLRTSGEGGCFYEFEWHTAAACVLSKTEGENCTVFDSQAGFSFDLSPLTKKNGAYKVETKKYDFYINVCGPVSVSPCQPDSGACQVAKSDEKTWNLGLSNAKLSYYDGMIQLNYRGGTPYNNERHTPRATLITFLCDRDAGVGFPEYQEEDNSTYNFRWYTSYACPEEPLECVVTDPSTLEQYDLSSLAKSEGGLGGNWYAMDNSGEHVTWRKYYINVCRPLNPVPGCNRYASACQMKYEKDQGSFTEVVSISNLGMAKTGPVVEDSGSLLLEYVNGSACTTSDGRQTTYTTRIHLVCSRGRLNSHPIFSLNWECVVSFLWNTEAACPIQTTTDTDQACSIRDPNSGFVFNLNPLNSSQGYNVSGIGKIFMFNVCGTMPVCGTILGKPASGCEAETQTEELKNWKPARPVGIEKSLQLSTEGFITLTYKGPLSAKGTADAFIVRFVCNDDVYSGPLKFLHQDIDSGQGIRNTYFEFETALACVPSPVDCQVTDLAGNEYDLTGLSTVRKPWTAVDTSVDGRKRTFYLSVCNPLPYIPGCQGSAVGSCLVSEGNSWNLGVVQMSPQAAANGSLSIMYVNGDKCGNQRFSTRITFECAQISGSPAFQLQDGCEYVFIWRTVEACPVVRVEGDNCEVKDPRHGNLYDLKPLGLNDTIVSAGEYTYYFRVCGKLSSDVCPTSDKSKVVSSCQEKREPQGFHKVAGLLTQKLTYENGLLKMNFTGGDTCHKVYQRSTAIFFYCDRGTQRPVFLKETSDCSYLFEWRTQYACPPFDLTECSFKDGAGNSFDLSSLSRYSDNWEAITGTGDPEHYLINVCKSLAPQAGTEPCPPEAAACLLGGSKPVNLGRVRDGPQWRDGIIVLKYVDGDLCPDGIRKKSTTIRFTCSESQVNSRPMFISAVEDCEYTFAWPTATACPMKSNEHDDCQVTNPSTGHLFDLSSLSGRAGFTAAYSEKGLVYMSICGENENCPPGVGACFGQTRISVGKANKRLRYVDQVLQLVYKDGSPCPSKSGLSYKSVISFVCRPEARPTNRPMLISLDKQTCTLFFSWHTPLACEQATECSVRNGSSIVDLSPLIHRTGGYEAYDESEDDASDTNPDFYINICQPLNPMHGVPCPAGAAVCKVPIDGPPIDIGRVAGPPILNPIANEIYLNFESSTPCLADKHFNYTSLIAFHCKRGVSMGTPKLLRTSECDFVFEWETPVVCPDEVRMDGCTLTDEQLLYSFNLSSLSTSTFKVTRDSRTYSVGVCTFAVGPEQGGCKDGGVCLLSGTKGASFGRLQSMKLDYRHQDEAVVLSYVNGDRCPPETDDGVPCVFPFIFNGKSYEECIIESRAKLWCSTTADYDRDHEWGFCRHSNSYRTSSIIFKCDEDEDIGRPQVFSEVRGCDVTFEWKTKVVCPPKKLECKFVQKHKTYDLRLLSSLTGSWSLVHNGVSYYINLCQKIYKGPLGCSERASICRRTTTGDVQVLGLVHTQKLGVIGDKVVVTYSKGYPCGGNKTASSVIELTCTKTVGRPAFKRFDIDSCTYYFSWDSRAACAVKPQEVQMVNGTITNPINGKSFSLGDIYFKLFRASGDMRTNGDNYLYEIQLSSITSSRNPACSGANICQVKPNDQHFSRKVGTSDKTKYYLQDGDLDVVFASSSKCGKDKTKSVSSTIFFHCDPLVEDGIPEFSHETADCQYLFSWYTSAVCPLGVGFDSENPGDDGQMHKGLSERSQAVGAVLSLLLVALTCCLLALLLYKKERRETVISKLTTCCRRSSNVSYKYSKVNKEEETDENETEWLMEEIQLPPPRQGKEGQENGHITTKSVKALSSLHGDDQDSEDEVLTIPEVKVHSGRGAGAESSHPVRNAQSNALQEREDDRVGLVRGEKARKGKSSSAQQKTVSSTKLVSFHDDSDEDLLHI

## MYOZYME®: conventional rhGAA product containing alglucosidase alfa, marketed by Genzyme
[1]; flow through
  rhGAA that did not bind to the CIMPR: 73%
[1]
  rhGAA that binds to the CIMPR (M6P eluted): 27%
[2]; single fibers, FIG. 17
  lysosomes and autophagic buildup compared to vehicle-treated mice: did not show any significant difference

## CCCCN1C[C@H](O)[C@@H](O)[C@H](O)[C@H]1CO [AT2221, (2R,3R,4R,5S)-1-butyl-2-(hydroxymethyl)piperidine-3,4,5-triol]
[3]; pH 7.4
  increase of the melting temperature (Tm) of ATB200 by addition of AT2221: ~10 °C
[3]; pH 7.4, FIG. 12
  stabilization of ATB200 by AT2221: stabilized ATB200 at pH 7.4 in a concentration-dependent manner

## ATB200: recombinant human acid α-glucosidase with a high content of N-glycans bearing mono-M6P and bis-M6P, produced from a GA-ATB200 CHO cell line
[4]; CIMPR-coated plates, varying rhGAA concentrations (FIG. 10A)
  binding to CIMPR compared with LUMIZYME: significantly better
[4]; M6P receptor plate binding assays
  Kd: 2 to 4 nM
[5]; 16-hr incubation, FIGS. 11A-11B
  internalization into normal and Pompe fibroblast cells compared with LUMIZYME: internalized to a greater degree
[5]; 16-hr incubation, normal and Pompe fibroblasts
  concentration that saturates cellular receptors: about 20 nM
[5]; extrapolated from uptake curves, FIG. 11C
  uptake efficiency constant (Kuptake): 2-3 nm
[3]; pH 5.2
  Tm: 67.3 °C
[3]; pH 7.4
  Tm: 56.2 °C
[3]; pH 7.4 + 10 μM AT2221
  Tm: 61.6 °C
[3]; pH 7.4 + 30 μM AT2221
  Tm: 62.9 °C
[3]; pH 7.4 + 100 μM AT2221
  Tm: 66.0 °C
[2]; Gaa KO mice
  Fibers with Autophagy Buildup: 40-64%*
[2]; single fibers, compared to Vehicle- or alglucosidase alfa-treated group
  area / extent of autophagic buildup: reduced to various degrees
